Laboratory results reported in patent US20030064943A1.

Target: human transforming growth factor β2 (TGFβ2) (human) (UniProt P61812)
Test: cell-based or functional assay

Chain of human transforming growth factor β2 (TGFβ2) (human) (P61812 303-414): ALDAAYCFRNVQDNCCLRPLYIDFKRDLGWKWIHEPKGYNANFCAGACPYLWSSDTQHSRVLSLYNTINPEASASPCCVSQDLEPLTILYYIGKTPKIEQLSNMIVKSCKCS

- Ki, reversal of TGFβ2-mediated inhibition of 3H-thymidine incorporation in mink lung epithelial cells: 0.5 nM
Substance: latency associated peptide (LAP)
